Laboratory results taken from article doi:10.1101/2023.09.28.559889 (bioRxiv, 2023).

Tests used:
[1] = molecular target: NatR antitoxin (PA1029), co-expressed with His-tagged NatT in E. coli (P. aeruginosa); test: crystal structure
[2] = molecular target: NatT toxin (PA1030), His-tagged, co-expressed with NatR in E. coli (P. aeruginosa) (UniProt Q9I4U4); test: mass photometry
crystal structure = molecular target: the molecule itself; test: crystal structure

With “NatR antitoxin (PA1029), co-expressed with His-tagged NatT in E. coli (natural protein)” as the molecule, how does the stoichiometry N [1] read?
The stoichiometry N was 2.

What about the stoichiometry N [2] of the same molecule?
Its stoichiometry N is 2.

B1: NatT toxin (PA1030), His-tagged, co-expressed with NatR in E. coli (enzyme)
chain: SEIWRQCKGERHIRPLQGRLVRLVESQEQVATLQLVDTLEEQALLEELLESSKPPVPADAEPLHYLLKTPFRYPPLRWGSRFGRRHEPSLFYAALKLETAMAESAYYRCVLWSGMVVPPPSGRILSEHASFEAGWKVERGIRLQAPPFSDHEAALTDIADYRAPQELGSAMRSAGVQAFEYRSARCPERGCNVALFTPAAFTEKRPRNLTPWLCETTAGYVAFKPAHVPGSPKIFSWELFLVDGKLPHPA
B1 was tested. Which “stoichiometry N” value (crystal structure) did it give?
Its value is 2.
